The text below walks through data of paper PMC12507909.

This assay has as its target basigin (BSG), recombinant extracellular domain Met1-His205 (human). Kind of assay: ELISA; Maxisorp plates coated with 5 μg/mL of each receptor candidate; serial dilutions of PvRBP1a_(158-650)LTID and LTID (48,000 pM to 187.5 pM and 4,000 pM to 1.28 pM) in blocking solution, 16 hours at 4°C; detected with a TurboID-specific antibody; one-site binding saturation model; triplicates. (In general: An ELISA detects its analyte on a solid surface through an enzyme-linked reagent.)

A word on the Kd: it is the concentration at which binding is half-saturated. As to “PvRBP1a_(158-650)LTID fusion protein (from UniProt Q5DSE1 158-650) (domain or fragment)”, the dissociation constant (Kd) was 2.16 nM.
